As usually defined, the Kd is the concentration at which binding is half-saturated. A low value points to a tighter complex.

This assay deals with T1, soluble human CD3ε chain (human, UniProt P07766 23-126, limits assumed).
T1 construct: also called human CD3 epsilon chain
In words: SPR (Biacore), soluble human CD3ε chain. For orientation: SPR reads the build-up and loss of mass on a sensor chip optically.

T1 sequence (P07766 23-126 limits assumed): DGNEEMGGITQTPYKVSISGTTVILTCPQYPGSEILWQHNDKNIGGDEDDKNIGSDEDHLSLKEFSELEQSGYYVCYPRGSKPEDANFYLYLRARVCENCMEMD

B1: TR01H008-E22Hh/none-Hi-Kn010G3/L0000-k0 (antibody, human IgG1, kappa, L234A L235A, N297A)
heavy: QVQLVESGGGLVQPGRSLRLSCAASGFTFSNAWMHWVRQAPGKGLEWVAQIKGKSNNYATYYAESVKGRFTISRADSKNSIYLQMNSLKTEDTAVYYCRYVHYGAYYGVDIWGQGTTVTVSSASTKGPSVFPLAPSSKSTSGGTAALGCLVKDYFPEPVTVSWNSGALTSGVHTFPAVLQSSGLYSLSSVVTVPSSSLGTQTYICNVNHKPSNTKVDKKVEPKSCDKTHTCPPCPAPEAAGGPSVFLFPPKPKDTLMISRTPEVTCVVVDVSHEDPEVKFNWYVDGVEVHNAKTKPREEQYASTYRVVSVLTVLHQDWLNGKEYKCKVSNKALPAPIEKTISKAKGQPREPQVYTLPPSRCELTKNQVSLSCAVKGFYPSDIAVEWESNGQPENNYKTTPPVLDSDGSFFLVSKLTVDKSRWQQGNVFSCSVMHEALHNHYTQKSLSLSPDYKDDDDK
chain: EPKSSDKTHTCPPCPAPELLGGPSVFLFPPKPKDTLMISRTPEVTCVVVDVSHEDPEVKFNWYVDGVEVHNAKTKPREEQYNSTYRVVSVLTVLHQDWLNGKEYKCKVSNKALPAPIEKTISKAKGQPREPQVCTLPPSRDELTKNQVSLWCLVKGFYPSDIAVEWESNGQPENNYKTTPPVLDSDGSFFLYSKLTVDKSRWQQGNVFSCSVMHEALHNRYTQKSLSLSP
light: DIVMTQSPLSLPVTPGEPASISCRSSQSLVHSNRNTYLHWYQQKPGQAPRLLIYKVSNRFSGVPDRFSGSGSGTDFTLKISRVEAEDVGVYYCGQGTQVPYTFGQGTKLEIKRTVAAPSVFIFPPSDEQLKSGTASVVCLLNNFYPREAKVQWKVDNALQSGNSQESVTEQDSKDSTYSLSSTLTLSKADYEKHKVYACEVTHQGLSSPVTKSFNRGEC
notes: one-arm antibody (single Fab) with Fab-less hinge-Fc chain Hi-Kn010G3
B1 yielded a Kd of 42.2 nM.

B2: TR01H010-E22Hh/none-Hi-Kn010G3/L0000-k0 (antibody, human IgG1, kappa, L234A L235A, N297A)
heavy: QVQLVESGGGLVQPGRSLRLSCAASGFTFSNAWMHWVRQAPGKGLEWVAQIKAKSNNYATYYAESVKGRFTISRADSKNSIYLQMNSLKTEDTAVYYCRYVHYSAYYGVDIWGQGTTVTVSSASTKGPSVFPLAPSSKSTSGGTAALGCLVKDYFPEPVTVSWNSGALTSGVHTFPAVLQSSGLYSLSSVVTVPSSSLGTQTYICNVNHKPSNTKVDKKVEPKSCDKTHTCPPCPAPEAAGGPSVFLFPPKPKDTLMISRTPEVTCVVVDVSHEDPEVKFNWYVDGVEVHNAKTKPREEQYASTYRVVSVLTVLHQDWLNGKEYKCKVSNKALPAPIEKTISKAKGQPREPQVYTLPPSRCELTKNQVSLSCAVKGFYPSDIAVEWESNGQPENNYKTTPPVLDSDGSFFLVSKLTVDKSRWQQGNVFSCSVMHEALHNHYTQKSLSLSPDYKDDDDK
chain: EPKSSDKTHTCPPCPAPELLGGPSVFLFPPKPKDTLMISRTPEVTCVVVDVSHEDPEVKFNWYVDGVEVHNAKTKPREEQYNSTYRVVSVLTVLHQDWLNGKEYKCKVSNKALPAPIEKTISKAKGQPREPQVCTLPPSRDELTKNQVSLWCLVKGFYPSDIAVEWESNGQPENNYKTTPPVLDSDGSFFLYSKLTVDKSRWQQGNVFSCSVMHEALHNRYTQKSLSLSP
light: DIVMTQSPLSLPVTPGEPASISCRSSQSLVHSNRNTYLHWYQQKPGQAPRLLIYKVSNRFSGVPDRFSGSGSGTDFTLKISRVEAEDVGVYYCGQGTQVPYTFGQGTKLEIKRTVAAPSVFIFPPSDEQLKSGTASVVCLLNNFYPREAKVQWKVDNALQSGNSQESVTEQDSKDSTYSLSSTLTLSKADYEKHKVYACEVTHQGLSSPVTKSFNRGEC
notes: as for B1
Molecule B2 gave a Kd of 37.3 nM.

B3: TR01H011-E22Hh/none-Hi-Kn010G3/L0000-k0 (antibody, human IgG1, kappa, L234A L235A, N297A)
heavy: QVQLVESGGGLVQPGRSLRLSCAASGFTFSNAWMHWVRQAPGKGLEWVAQIKAKSNNYATYYAESVKGRFTISRADSKNSIYLQMNSLKTEDTAVYYCRYVHYGASYGVDIWGQGTTVTVSSASTKGPSVFPLAPSSKSTSGGTAALGCLVKDYFPEPVTVSWNSGALTSGVHTFPAVLQSSGLYSLSSVVTVPSSSLGTQTYICNVNHKPSNTKVDKKVEPKSCDKTHTCPPCPAPEAAGGPSVFLFPPKPKDTLMISRTPEVTCVVVDVSHEDPEVKFNWYVDGVEVHNAKTKPREEQYASTYRVVSVLTVLHQDWLNGKEYKCKVSNKALPAPIEKTISKAKGQPREPQVYTLPPSRCELTKNQVSLSCAVKGFYPSDIAVEWESNGQPENNYKTTPPVLDSDGSFFLVSKLTVDKSRWQQGNVFSCSVMHEALHNHYTQKSLSLSPDYKDDDDK
chain: EPKSSDKTHTCPPCPAPELLGGPSVFLFPPKPKDTLMISRTPEVTCVVVDVSHEDPEVKFNWYVDGVEVHNAKTKPREEQYNSTYRVVSVLTVLHQDWLNGKEYKCKVSNKALPAPIEKTISKAKGQPREPQVCTLPPSRDELTKNQVSLWCLVKGFYPSDIAVEWESNGQPENNYKTTPPVLDSDGSFFLYSKLTVDKSRWQQGNVFSCSVMHEALHNRYTQKSLSLSP
light: DIVMTQSPLSLPVTPGEPASISCRSSQSLVHSNRNTYLHWYQQKPGQAPRLLIYKVSNRFSGVPDRFSGSGSGTDFTLKISRVEAEDVGVYYCGQGTQVPYTFGQGTKLEIKRTVAAPSVFIFPPSDEQLKSGTASVVCLLNNFYPREAKVQWKVDNALQSGNSQESVTEQDSKDSTYSLSSTLTLSKADYEKHKVYACEVTHQGLSSPVTKSFNRGEC
notes: as for B1
As to B3, the Kd worked out at 37.1 nM.

B4: TR01H009-E22Hh/none-Hi-Kn010G3/L0000-k0 (antibody, human IgG1, kappa, L234A L235A, N297A)
heavy: QVQLVESGGGLVQPGRSLRLSCAASGFTFSNAWMHWVRQAPGKGLEWVAQIKAKSNNYATYYAPSVKGRFTISRADSKNSIYLQMNSLKTEDTAVYYCRYVHYGAYYGVDIWGQGTTVTVSSASTKGPSVFPLAPSSKSTSGGTAALGCLVKDYFPEPVTVSWNSGALTSGVHTFPAVLQSSGLYSLSSVVTVPSSSLGTQTYICNVNHKPSNTKVDKKVEPKSCDKTHTCPPCPAPEAAGGPSVFLFPPKPKDTLMISRTPEVTCVVVDVSHEDPEVKFNWYVDGVEVHNAKTKPREEQYASTYRVVSVLTVLHQDWLNGKEYKCKVSNKALPAPIEKTISKAKGQPREPQVYTLPPSRCELTKNQVSLSCAVKGFYPSDIAVEWESNGQPENNYKTTPPVLDSDGSFFLVSKLTVDKSRWQQGNVFSCSVMHEALHNHYTQKSLSLSPDYKDDDDK
chain: EPKSSDKTHTCPPCPAPELLGGPSVFLFPPKPKDTLMISRTPEVTCVVVDVSHEDPEVKFNWYVDGVEVHNAKTKPREEQYNSTYRVVSVLTVLHQDWLNGKEYKCKVSNKALPAPIEKTISKAKGQPREPQVCTLPPSRDELTKNQVSLWCLVKGFYPSDIAVEWESNGQPENNYKTTPPVLDSDGSFFLYSKLTVDKSRWQQGNVFSCSVMHEALHNRYTQKSLSLSP
light: DIVMTQSPLSLPVTPGEPASISCRSSQSLVHSNRNTYLHWYQQKPGQAPRLLIYKVSNRFSGVPDRFSGSGSGTDFTLKISRVEAEDVGVYYCGQGTQVPYTFGQGTKLEIKRTVAAPSVFIFPPSDEQLKSGTASVVCLLNNFYPREAKVQWKVDNALQSGNSQESVTEQDSKDSTYSLSSTLTLSKADYEKHKVYACEVTHQGLSSPVTKSFNRGEC
notes: as for B1
Molecule B4 showed a Kd of 31.5 nM.

These data come from patent US20210388110A1 (published 2021).
